Laboratory results taken from patent US20250277054A1 (WUXI BIOLOGICS IRELAND, published 2025).

Assays:
[1] = biological target: T1, human PSMA on human prostate cancer cells (LNCaP, C4-2, 22Rv1) (human, UniProt Q04609 1-750); experiment: flow cytometry on LNCaP cells
T1 construct: whole, on cells; also called human PSMA-expressing LNCaP cells; C4-2 (PSMA High)
Protocol: After washing the cells twice with 1×PBS/1% BSA, Alexa fluor 647-labeled goat anti-human antibody (1:500 diluted with 1×PBS/1% BSA) was added into the cells and incubated in a refrigerator set to 4° C. for 0.5 hour in the dark. After washing the cells twice with 1×PBS/1% BSA, the mean fluorescence intensity (MFI) of the cells was measured by a flow cytometer and analyzed by FLOWJO. The binding EC50 was calculated by GraphPad Prism through plotting antibody concentration (x-axis) versus MFI (y-axis) and analyzing as: Nonlinear regression (curve fit)-log (agonist) vs. response-Variable slope (four parameters).

[2] = biological target: T2, Mouse PSMA.ECD.His (Acro) (mouse, UniProt O35409 45-752); experiment: ELISA, coated mouse PSMA protein (His tag)
T2 construct: extracellular domain; Bought protein with His tag; also called mouse PSMA protein (His tag); Mouse PSMA/FOLH1 protein, His tag
T2 sequence (O35409 45-752): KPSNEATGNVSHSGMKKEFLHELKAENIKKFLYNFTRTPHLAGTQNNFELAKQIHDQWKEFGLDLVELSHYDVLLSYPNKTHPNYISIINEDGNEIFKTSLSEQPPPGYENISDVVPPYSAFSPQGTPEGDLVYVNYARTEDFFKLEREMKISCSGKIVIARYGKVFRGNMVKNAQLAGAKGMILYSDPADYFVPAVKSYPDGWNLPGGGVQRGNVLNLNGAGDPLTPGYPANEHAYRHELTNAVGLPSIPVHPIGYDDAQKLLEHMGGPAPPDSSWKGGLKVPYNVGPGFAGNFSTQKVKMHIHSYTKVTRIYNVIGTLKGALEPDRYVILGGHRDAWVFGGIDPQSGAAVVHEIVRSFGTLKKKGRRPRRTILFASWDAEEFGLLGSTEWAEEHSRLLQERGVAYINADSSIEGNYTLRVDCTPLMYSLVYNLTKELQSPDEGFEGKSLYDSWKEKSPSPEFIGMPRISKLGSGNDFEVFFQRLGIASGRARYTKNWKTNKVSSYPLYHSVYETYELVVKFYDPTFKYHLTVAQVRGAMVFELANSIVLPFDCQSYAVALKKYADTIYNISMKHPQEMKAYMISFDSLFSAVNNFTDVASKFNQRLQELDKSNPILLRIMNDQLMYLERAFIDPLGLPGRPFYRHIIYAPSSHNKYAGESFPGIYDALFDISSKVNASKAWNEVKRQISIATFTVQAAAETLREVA
Protocol: Briefly, 2 μg/mL mouse PSMA protein (His tag) were coated onto well in ELISA plate in coating buffer for 16 hours in a refrigerator set to 4° C. After washing plate once time with 1×PBST, 200 μL/well 2% BSA were added into wells and incubated for one hour at ambient temperature. […] After washing six times with 1×PBST, 100 μL/well of TMB substrate solution were added into wells and incubated for 5 minutes in dark and then 100 μL/well of 2M HCL were added into wells to stop the reaction. The relative light unit (RLU) were measured at OD450 and OD540 by SPECTRAMAX M5E. EC50 was determined as described above.

[3] = biological target: T3, Human PSMA.ECD.His (Acro) (human, UniProt Q04609 44-750); experiment: ELISA, human PSMA ECD captured by anti-His antibody
T3 construct: extracellular domain; Bought protein with His tag; also called human PSMA ECD protein; Human PSMA/FOLH1 protein, His tag
T3 sequence (Q04609 44-750): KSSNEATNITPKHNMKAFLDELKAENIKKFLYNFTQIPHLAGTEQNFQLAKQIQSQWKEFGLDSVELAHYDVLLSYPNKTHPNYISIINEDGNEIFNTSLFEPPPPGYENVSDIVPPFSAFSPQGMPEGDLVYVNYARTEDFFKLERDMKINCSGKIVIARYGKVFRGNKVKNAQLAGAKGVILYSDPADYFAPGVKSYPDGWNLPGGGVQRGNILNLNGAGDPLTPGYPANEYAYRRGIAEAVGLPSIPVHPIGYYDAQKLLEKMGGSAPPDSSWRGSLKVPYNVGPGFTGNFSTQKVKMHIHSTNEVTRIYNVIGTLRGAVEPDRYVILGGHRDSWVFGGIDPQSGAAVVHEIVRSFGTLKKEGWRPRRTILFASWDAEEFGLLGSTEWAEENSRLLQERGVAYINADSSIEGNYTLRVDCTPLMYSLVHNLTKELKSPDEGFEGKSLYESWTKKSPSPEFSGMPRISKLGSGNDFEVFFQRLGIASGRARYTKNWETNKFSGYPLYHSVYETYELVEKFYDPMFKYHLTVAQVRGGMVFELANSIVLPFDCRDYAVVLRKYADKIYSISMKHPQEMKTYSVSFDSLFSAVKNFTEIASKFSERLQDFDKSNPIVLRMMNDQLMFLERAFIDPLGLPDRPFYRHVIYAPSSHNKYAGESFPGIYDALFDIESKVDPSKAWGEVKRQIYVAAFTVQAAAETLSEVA
Protocol: Plate was pre-coated with 1 μg/mL THE™ His Tag Antibody overnight in a refrigerator set to 4° C. After blocking with 200 μL of 1×PBS/2% BSA for 1 hour, the plates were washed with 1×PBST for three times, then 0.5 g/mL human PSMA ECD protein diluted in 1×PBS/2% BSA was added in a volume of 50 μL/well to the plate and incubated for 1 hour at ambient temperature. […] After washing the plates with 1×PBST for three times, 50 μL/well of HRP-labeled goat anti-human IgG antibody (1:5000 diluted in 1×PBS/2% BSA) were added into the plate and incubated for 1 hour at ambient temperature. After washing the plates with 1×PBST for six times, the color was developed by dispensing 50 μL/well of TMB substrate for 4-8 minutes, and then the reaction was stopped by adding 50 μL/well of 2M HCl. The absorbance was read at 450 nm using a microplate reader. The binding EC50 was calculated by GraphPad Prism through plotting antibody concentration (x-axis) versus OD450 value (y-axis) and analyzing as: Nonlinear regression (curve fit)-log (agonist) vs. response-Variable slope (four parameters).

[4] = biological target: T4, full-length cynomolgus PSMA on Flp-in CHO cells (WBP3xx042-FlpinCHO.cPro1.B7) (cynomolgus, UniProt A0A2K5VNZ0 1-750); experiment: flow cytometry on cynomolgus PSMA-expressing CHO cells
T4 construct: whole, on cells; also called Cyno PSMA+ CHO cells; FlpInCHO-cyno PSMA
Protocol: After washing the cells twice with 1×PBS/1% BSA, Alexa fluor 647-labeled goat anti-human antibody (1:500 diluted with 1×PBS/1% BSA) was added into the cells and incubated in a refrigerator set to 4° C. for 0.5 hour in the dark. After washing the cells twice with 1×PBS/1% BSA, the mean fluorescence intensity (MFI) of the cells was measured by a flow cytometer and analyzed by FLOWJO.

[5] = biological target: T5, Cyno PSMA.ECD.His (Acro) (cynomolgus, UniProt A0A2K5VNZ0 44-750); experiment: ELISA, cynomolgus PSMA ECD captured by anti-His antibody
T5 construct: extracellular domain; Bought protein with His tag; also called cynomolgus PSMA ECD protein; Cynomolgus PSMA/FOLH1 protein, His tag
Protocol: Plate was pre-coated with 1 μg/mL THETM His Tag Antibody overnight in a refrigerator set to 4° C. After blocking with 200 μL of 1×PBS/2% BSA for 1 hour, the plates were washed with 1×PBST for three times, then 0.5 μg/mL cynomolgus PSMA ECD protein diluted in 1×PBS/2% BSA was added in a volume of 50 μL/well to the plate and incubated for 1 hour at ambient temperature. […] After washing the plates with 1×PBST for three times, 50 μL/well of HRP-labeled goat anti-human IgG antibody (1:5000 diluted in 1×PBS/2% BSA) were added into the plate and incubated for 1 hour at ambient temperature. After washing the plates with 1×PBST for six times, the color was developed by dispensing 50 μL/well of TMB substrate for 4-8 minutes, and then the reaction was stopped by adding 50 μL/well of 2M HCl. The absorbance was read at 450 nm using a microplate reader. EC50 was determined as described above.

[6] = biological target: T5, Cyno PSMA.ECD.His (Acro); experiment: SPR (Biacore 8K), antibody captured by anti-human IgG Fc, PSMA injected, 1:1 model
Protocol: (§1) Each antibody was captured on an anti-human IgG Fc antibody immobilized CM5 sensor chip (Cytiva). Human and cynomolgus PSMA at different concentrations were injected over the sensor chip at a flow rate of 30 μL/min for an association phase of 120-180 s, followed by 600-3600 s dissociation. The chip was regenerated by 10 mM glycine (pH 1.5) after each binding cycle.
(§2) The sensorgrams of blank surface and buffer channel were subtracted from the test sensorgrams. The experimental data was fitted by 1:1 binding model. Molecular weight of 81.4 and 82.7 kDa were used to calculate the molar concentration of human and cynomolgus PSMA.

[7] = biological target: T3, Human PSMA.ECD.His (Acro); experiment: as above
Protocol: as §1, §2

T1 sequence (Q04609 whole entry): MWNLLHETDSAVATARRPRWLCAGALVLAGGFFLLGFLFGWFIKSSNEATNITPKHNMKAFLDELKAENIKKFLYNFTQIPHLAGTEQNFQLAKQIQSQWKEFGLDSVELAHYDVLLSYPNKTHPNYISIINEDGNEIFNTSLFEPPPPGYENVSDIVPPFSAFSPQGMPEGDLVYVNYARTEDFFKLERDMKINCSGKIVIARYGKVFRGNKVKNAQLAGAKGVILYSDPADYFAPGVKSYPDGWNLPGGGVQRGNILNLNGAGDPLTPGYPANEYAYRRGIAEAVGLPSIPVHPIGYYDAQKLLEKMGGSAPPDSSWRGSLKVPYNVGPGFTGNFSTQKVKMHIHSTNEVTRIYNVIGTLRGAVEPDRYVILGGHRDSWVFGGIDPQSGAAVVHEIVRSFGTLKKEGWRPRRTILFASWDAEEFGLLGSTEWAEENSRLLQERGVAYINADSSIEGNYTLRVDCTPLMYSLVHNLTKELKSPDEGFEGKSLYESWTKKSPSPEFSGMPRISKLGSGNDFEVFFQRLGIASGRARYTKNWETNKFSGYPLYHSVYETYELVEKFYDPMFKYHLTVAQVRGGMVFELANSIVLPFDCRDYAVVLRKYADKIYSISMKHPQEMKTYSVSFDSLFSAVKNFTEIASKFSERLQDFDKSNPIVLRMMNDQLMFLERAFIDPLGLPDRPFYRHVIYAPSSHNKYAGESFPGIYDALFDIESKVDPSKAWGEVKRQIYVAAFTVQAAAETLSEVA

B1: W305042-1.135.2-uIgG1L (antibody, V domains shown)
VH: EVQLVQSGAEVKKPGESLKISCKASGYSFTTYWIGWVRQMPGKGLELMGIIYPYDSDTRYSPSFQGQVTISADKSINTAYLQWSSLKASDTAMYYCARITGGYLFDYWGQGILVTVSS
VL: QSALTQPPSASGSPGQSVTISCTGTSSDVGGYNYVSWYQQHPGKAPKLMIYEVTKRPSGVPDRFSGSKSGNTASLTVSGLQAEDEADYYCTSYAGSNKYVFGTGTKVTVLG
notes: Fully human anti-PSMA monoclonal antibody, human IgG1 with lambda light chain; also called WBP305042; W305042-1.135.2-uIgGIL
**Q.** With B1 as the binder, how does the EC50 [1] read?
**A.** 250 pM

**Q.** What about the EC50 [2] of the same binder?
**A.** 26 pM

**Q.** And the EC50 [3]?
**A.** 17 pM

**Q.** What about the EC50 [4] of the same binder?
**A.** 2250 pM

**Q.** What about the EC50 [5] of the same binder?
**A.** 6 pM

**Q.** And the Kd [6]?
**A.** 2840 pM

**Q.** And the koff [6]?
**A.** 0.000584 s⁻¹

**Q.** And the kon [6]?
**A.** 206000 M⁻¹ s⁻¹

**Q.** And the Kd [7]?
**A.** 29.4 pM

**Q.** What about the koff [7] of the same binder?
**A.** 1.12e-05 s⁻¹

**Q.** And the kon [7]?
**A.** 381000 M⁻¹ s⁻¹
